Data from IntAct's records for PubMed 18093920.

B1: Syndecan-2 (Homo sapiens), P34741 (parent)
chain: MRRAWILLTLGLVACVSAESRAELTSDKDMYLDNSSIEEASGVYPIDDDDYASASGSGADEDVESPELTTSRPLPKILLTSAAPKVETTTLNIQNKIPAQTKSPEETDKEKVHLSDSERKMDPAEEDTNVYTEKHSDSLFKRTEVLAAVIAGGVIGFLFAIFLILLLVYRMRKKDEGSYDLGERKPSSAAYQKAPTKEFYA
partner: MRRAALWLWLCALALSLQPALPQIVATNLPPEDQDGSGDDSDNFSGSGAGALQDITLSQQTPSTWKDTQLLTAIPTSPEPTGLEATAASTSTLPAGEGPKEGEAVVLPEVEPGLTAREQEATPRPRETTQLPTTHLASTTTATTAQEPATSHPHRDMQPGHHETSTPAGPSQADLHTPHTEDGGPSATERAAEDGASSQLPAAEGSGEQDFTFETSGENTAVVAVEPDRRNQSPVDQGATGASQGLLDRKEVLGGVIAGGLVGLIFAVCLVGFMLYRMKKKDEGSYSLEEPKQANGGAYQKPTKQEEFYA
B2: Syndecan-3 (Homo sapiens), O75056 (parent)
chain: MKPGPPHRAGAAHGAGAGAGAAAGPGARGLLLPPLLLLLLAGRAAGAQRWRSENFERPVDLEGSGDDDSFPDDELDDLYSGSGSGYFEQESGIETAMRFSPDVALAVSTTPAVLPTTNIQPVGTPFEELPSERPTLEPATSPLVVTEVPEEPSQRATTVSTTMATTAATSTGDPTVATVPATVATATPSTPAAPPFTATTAVIRTTGVRRLLPLPLTTVATARATTPEAPSPPTTAAVLDTEAPTPRLVSTATSRPRALPRPATTQEPDIPERSTLPLGTTAPGPTEVAQTPTPETFLTTIRDEPEVPVSGGPSGDFELPEEETTQPDTANEVVAVGGAAAKASSPPGTLPKGARPGPGLLDNAIDSGSSAAQLPQKSILERKEVLVAVIVGGVVGALFAAFLVTLLIYRMKKKDEGSYTLEEPKQASVTYQKPDKQEEFYA
partner: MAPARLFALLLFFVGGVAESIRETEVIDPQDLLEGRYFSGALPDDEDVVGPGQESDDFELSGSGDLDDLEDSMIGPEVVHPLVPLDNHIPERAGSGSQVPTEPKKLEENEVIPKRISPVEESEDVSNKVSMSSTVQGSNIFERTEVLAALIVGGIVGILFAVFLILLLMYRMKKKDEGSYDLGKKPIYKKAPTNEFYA
B3: Syndecan-2 (Homo sapiens), P34741 (parent)
chain: B1 chain
B4: Syndecan-1 (Homo sapiens), P18827 (parent)
chain: B1 partner
B5: Syndecan-4 (Homo sapiens), P31431 (parent)
chain: B2 partner
B6: Syndecan-2 (Homo sapiens), P34741 (parent)
chain: B1 chain
partner: B2 partner
B7: Syndecan-3 (Homo sapiens), O75056 (parent)
chain: B2 chain

Variants of: B1
Conditions: with sdc1_human SDC1, P18827

Variant | effect of a mutation on the interaction
MRRAWILLTLGLVACVSAESRAELTSDKDMYLDNSSIEEASGVYPIDDDDYASASGSGADEDVESPELTTSRPLPKILLTSAAPKVETTTLNIQNKIPAQTKSPEETDKEKVHLSDSERKMDPAEEDTNVYTEKHSDSLFKRTEVLAAVIALGVIGFLFAIFLILLLVYRMRKKDEGSYDLGERKPSSAAYQKAPTKEFYA [G152L] | decreasing interaction
MRRAWILLTLGLVACVSAESRAELTSDKDMYLDNSSIEEASGVYPIDDDDYASASGSGADEDVESPELTTSRPLPKILLTSAAPKVETTTLNIQNKIPAQTKSPEETDKEKVHLSDSERKMDPAEEDTNVYTEKHSDSLFKRTEVLAAVIAGGVILFLFAIFLILLLVYRMRKKDEGSYDLGERKPSSAAYQKAPTKEFYA [G156L] | decreasing interaction

Variants of: B2
Conditions: with sdc4_human SDC4, P31431

Variant | effect of a mutation on the interaction
MKPGPPHRAGAAHGAGAGAGAAAGPGARGLLLPPLLLLLLAGRAAGAQRWRSENFERPVDLEGSGDDDSFPDDELDDLYSGSGSGYFEQESGIETAMRFSPDVALAVSTTPAVLPTTNIQPVGTPFEELPSERPTLEPATSPLVVTEVPEEPSQRATTVSTTMATTAATSTGDPTVATVPATVATATPSTPAAPPFTATTAVIRTTGVRRLLPLPLTTVATARATTPEAPSPPTTAAVLDTEAPTPRLVSTATSRPRALPRPATTQEPDIPERSTLPLGTTAPGPTEVAQTPTPETFLTTIRDEPEVPVSGGPSGDFELPEEETTQPDTANEVVAVGGAAAKASSPPGTLPKGARPGPGLLDNAIDSGSSAAQLPQKSILERKEVLVAVIVGGVVLALFAAFLVTLLIYRMKKKDEGSYTLEEPKQASVTYQKPDKQEEFYA [G396L] | decreasing interaction

Variants of: B3
Conditions: with sdc3_human SDC3, O75056

Variant | effect of a mutation on the interaction
MRRAWILLTLGLVACVSAESRAELTSDKDMYLDNSSIEEASGVYPIDDDDYASASGSGADEDVESPELTTSRPLPKILLTSAAPKVETTTLNIQNKIPAQTKSPEETDKEKVHLSDSERKMDPAEEDTNVYTEKHSDSLFKRTEVLAAVIALGVIGFLFAIFLILLLVYRMRKKDEGSYDLGERKPSSAAYQKAPTKEFYA [G152L] | decreasing interaction
MRRAWILLTLGLVACVSAESRAELTSDKDMYLDNSSIEEASGVYPIDDDDYASASGSGADEDVESPELTTSRPLPKILLTSAAPKVETTTLNIQNKIPAQTKSPEETDKEKVHLSDSERKMDPAEEDTNVYTEKHSDSLFKRTEVLAAVIAGGVILFLFAIFLILLLVYRMRKKDEGSYDLGERKPSSAAYQKAPTKEFYA [G156L] | decreasing interaction

Variants of: B4
Conditions: with sdc2_human SDC2, P34741

Variant | effect of a mutation on the interaction
MRRAALWLWLCALALSLQPALPQIVATNLPPEDQDGSGDDSDNFSGSGAGALQDITLSQQTPSTWKDTQLLTAIPTSPEPTGLEATAASTSTLPAGEGPKEGEAVVLPEVEPGLTAREQEATPRPRETTQLPTTHLASTTTATTAQEPATSHPHRDMQPGHHETSTPAGPSQADLHTPHTEDGGPSATERAAEDGASSQLPAAEGSGEQDFTFETSGENTAVVAVEPDRRNQSPVDQGATGASQGLLDRKEVLGGVIAGGLVLLIFAVCLVGFMLYRMKKKDEGSYSLEEPKQANGGAYQKPTKQEEFYA [G263L] | decreasing interaction
MRRAALWLWLCALALSLQPALPQIVATNLPPEDQDGSGDDSDNFSGSGAGALQDITLSQQTPSTWKDTQLLTAIPTSPEPTGLEATAASTSTLPAGEGPKEGEAVVLPEVEPGLTAREQEATPRPRETTQLPTTHLASTTTATTAQEPATSHPHRDMQPGHHETSTPAGPSQADLHTPHTEDGGPSATERAAEDGASSQLPAAEGSGEQDFTFETSGENTAVVAVEPDRRNQSPVDQGATGASQGLLDRKEVLGGVIALGLVGLIFAVCLVGFMLYRMKKKDEGSYSLEEPKQANGGAYQKPTKQEEFYA [G259L] | decreasing interaction

Variants of: B4
Conditions: with sdc3_human SDC3, O75056

Variant | effect of a mutation on the interaction
MRRAALWLWLCALALSLQPALPQIVATNLPPEDQDGSGDDSDNFSGSGAGALQDITLSQQTPSTWKDTQLLTAIPTSPEPTGLEATAASTSTLPAGEGPKEGEAVVLPEVEPGLTAREQEATPRPRETTQLPTTHLASTTTATTAQEPATSHPHRDMQPGHHETSTPAGPSQADLHTPHTEDGGPSATERAAEDGASSQLPAAEGSGEQDFTFETSGENTAVVAVEPDRRNQSPVDQGATGASQGLLDRKEVLGGVIAGGLVLLIFAVCLVGFMLYRMKKKDEGSYSLEEPKQANGGAYQKPTKQEEFYA [G263L] | decreasing interaction
MRRAALWLWLCALALSLQPALPQIVATNLPPEDQDGSGDDSDNFSGSGAGALQDITLSQQTPSTWKDTQLLTAIPTSPEPTGLEATAASTSTLPAGEGPKEGEAVVLPEVEPGLTAREQEATPRPRETTQLPTTHLASTTTATTAQEPATSHPHRDMQPGHHETSTPAGPSQADLHTPHTEDGGPSATERAAEDGASSQLPAAEGSGEQDFTFETSGENTAVVAVEPDRRNQSPVDQGATGASQGLLDRKEVLGGVIALGLVGLIFAVCLVGFMLYRMKKKDEGSYSLEEPKQANGGAYQKPTKQEEFYA [G259L] | decreasing interaction

Variants of: B5
Conditions: with sdc2_human SDC2, P34741

Variant | effect of a mutation on the interaction
MAPARLFALLLFFVGGVAESIRETEVIDPQDLLEGRYFSGALPDDEDVVGPGQESDDFELSGSGDLDDLEDSMIGPEVVHPLVPLDNHIPERAGSGSQVPTEPKKLEENEVIPKRISPVEESEDVSNKVSMSSTVQGSNIFERTEVLAALIVLGIVGILFAVFLILLLMYRMKKKDEGSYDLGKKPIYKKAPTNEFYA [G153L] | decreasing interaction
MAPARLFALLLFFVGGVAESIRETEVIDPQDLLEGRYFSGALPDDEDVVGPGQESDDFELSGSGDLDDLEDSMIGPEVVHPLVPLDNHIPERAGSGSQVPTEPKKLEENEVIPKRISPVEESEDVSNKVSMSSTVQGSNIFERTEVLAALIVGGIVLILFAVFLILLLMYRMKKKDEGSYDLGKKPIYKKAPTNEFYA [G157L] | decreasing interaction

Variants of: B5
Conditions: with sdc3_human SDC3, O75056

Variant | effect of a mutation on the interaction
MAPARLFALLLFFVGGVAESIRETEVIDPQDLLEGRYFSGALPDDEDVVGPGQESDDFELSGSGDLDDLEDSMIGPEVVHPLVPLDNHIPERAGSGSQVPTEPKKLEENEVIPKRISPVEESEDVSNKVSMSSTVQGSNIFERTEVLAALIVLGIVGILFAVFLILLLMYRMKKKDEGSYDLGKKPIYKKAPTNEFYA [G153L] | decreasing interaction
MAPARLFALLLFFVGGVAESIRETEVIDPQDLLEGRYFSGALPDDEDVVGPGQESDDFELSGSGDLDDLEDSMIGPEVVHPLVPLDNHIPERAGSGSQVPTEPKKLEENEVIPKRISPVEESEDVSNKVSMSSTVQGSNIFERTEVLAALIVGGIVLILFAVFLILLLMYRMKKKDEGSYDLGKKPIYKKAPTNEFYA [G157L] | decreasing interaction

Variants of: B6
Conditions: with sdc4_human SDC4, P31431

Variant | effect of a mutation on the interaction
MRRAWILLTLGLVACVSAESRAELTSDKDMYLDNSSIEEASGVYPIDDDDYASASGSGADEDVESPELTTSRPLPKILLTSAAPKVETTTLNIQNKIPAQTKSPEETDKEKVHLSDSERKMDPAEEDTNVYTEKHSDSLFKRTEVLAAVIALGVIGFLFAIFLILLLVYRMRKKDEGSYDLGERKPSSAAYQKAPTKEFYA [G152L] | decreasing interaction
MRRAWILLTLGLVACVSAESRAELTSDKDMYLDNSSIEEASGVYPIDDDDYASASGSGADEDVESPELTTSRPLPKILLTSAAPKVETTTLNIQNKIPAQTKSPEETDKEKVHLSDSERKMDPAEEDTNVYTEKHSDSLFKRTEVLAAVIAGGVILFLFAIFLILLLVYRMRKKDEGSYDLGERKPSSAAYQKAPTKEFYA [G156L] | decreasing interaction

Variants of: B7
Conditions: with sdc2_human SDC2, P34741

Variant | effect of a mutation on the interaction
MKPGPPHRAGAAHGAGAGAGAAAGPGARGLLLPPLLLLLLAGRAAGAQRWRSENFERPVDLEGSGDDDSFPDDELDDLYSGSGSGYFEQESGIETAMRFSPDVALAVSTTPAVLPTTNIQPVGTPFEELPSERPTLEPATSPLVVTEVPEEPSQRATTVSTTMATTAATSTGDPTVATVPATVATATPSTPAAPPFTATTAVIRTTGVRRLLPLPLTTVATARATTPEAPSPPTTAAVLDTEAPTPRLVSTATSRPRALPRPATTQEPDIPERSTLPLGTTAPGPTEVAQTPTPETFLTTIRDEPEVPVSGGPSGDFELPEEETTQPDTANEVVAVGGAAAKASSPPGTLPKGARPGPGLLDNAIDSGSSAAQLPQKSILERKEVLVAVIVLGVVGALFAAFLVTLLIYRMKKKDEGSYTLEEPKQASVTYQKPDKQEEFYA [G392L] | decreasing interaction
MKPGPPHRAGAAHGAGAGAGAAAGPGARGLLLPPLLLLLLAGRAAGAQRWRSENFERPVDLEGSGDDDSFPDDELDDLYSGSGSGYFEQESGIETAMRFSPDVALAVSTTPAVLPTTNIQPVGTPFEELPSERPTLEPATSPLVVTEVPEEPSQRATTVSTTMATTAATSTGDPTVATVPATVATATPSTPAAPPFTATTAVIRTTGVRRLLPLPLTTVATARATTPEAPSPPTTAAVLDTEAPTPRLVSTATSRPRALPRPATTQEPDIPERSTLPLGTTAPGPTEVAQTPTPETFLTTIRDEPEVPVSGGPSGDFELPEEETTQPDTANEVVAVGGAAAKASSPPGTLPKGARPGPGLLDNAIDSGSSAAQLPQKSILERKEVLVAVIVGGVVLALFAAFLVTLLIYRMKKKDEGSYTLEEPKQASVTYQKPDKQEEFYA [G396L] | decreasing interaction
